# Test results: patent US20250171562A1 (ALK ABELL, published 2025)
# B1: CIgG4B1A1(G4S)2 (Fc fusion)
# chain 1: GPPCPPCPAPEFLGGPSVFLFPPKPKDTLMISRTPEVTCVVVDVSQEDPEVQFNWYVDGVEVHNAKTKPREEQFNSTYRVVSVLTVLHQDWLNGKEYKCKVSNKGLPSSIEKTISKAKGQPREPQVYTLPPCQEEMTKNQVSLWCLVKGFYPSDIAVEWESNGQPENNYKTTPPVLDSDGSFFLYSRLTVDKSRWQEGNVFSCSVMHEALHNHYTQKSLSLSLGKGGGGSGGGGSQVQLQESGGGLVQTGGSLRLSCAVHGRTFSNTGMGWFRQAPGNERQFVAIISPSGTSTYYADSVKGRFTISRDPAKNTVYLQMNSLKMDDTAVYYCAASYGSNWSTLRHQRRNEYDAWGQGTQVAVS
# chain 2: GPPCPPCPAPEFLGGPSVFLFPPKPKDTLMISRTPEVTCVVVDVSQEDPEVQFNWYVDGVEVHNAKTKPREEQFNSTYRVVSVLTVLHQDWLNGKEYKCKVSNKGLPSSIEKTISKAKGQPREPQVCTLPPSQEEMTKNQVSLSCAVKGFYPSDIAVEWESNGQPENNYKTTPPVLDSDGSFFLVSRLTVDKSRWQEGNVFSCSVMHEALHNHYTQKSLSLSLGKGGGGSGGGGSEVQLLESGGGLVQPGGSLRLSCAASGFTFGNYDMAWVRQAPGKRPEWVSSIDTGGDITHYADSVKGRFTISRDNAKNTLYLQMNSLRPEDTAVYWCATDEEYALGPNEFDYYGQGTLVTVSS
# B2: CIgG4B1A1(G4S)1 (Fc fusion)
# chain 1: GPPCPPCPAPEFLGGPSVFLFPPKPKDTLMISRTPEVTCVVVDVSQEDPEVQFNWYVDGVEVHNAKTKPREEQFNSTYRVVSVLTVLHQDWLNGKEYKCKVSNKGLPSSIEKTISKAKGQPREPQVYTLPPCQEEMTKNQVSLWCLVKGFYPSDIAVEWESNGQPENNYKTTPPVLDSDGSFFLYSRLTVDKSRWQEGNVFSCSVMHEALHNHYTQKSLSLSLGKGGGGSQVQLQESGGGLVQTGGSLRLSCAVHGRTFSNTGMGWFRQAPGNERQFVAIISPSGTSTYYADSVKGRFTISRDPAKNTVYLQMNSLKMDDTAVYYCAASYGSNWSTLRHQRRNEYDAWGQGTQVAVS
# chain 2: GPPCPPCPAPEFLGGPSVFLFPPKPKDTLMISRTPEVTCVVVDVSQEDPEVQFNWYVDGVEVHNAKTKPREEQFNSTYRVVSVLTVLHQDWLNGKEYKCKVSNKGLPSSIEKTISKAKGQPREPQVCTLPPSQEEMTKNQVSLSCAVKGFYPSDIAVEWESNGQPENNYKTTPPVLDSDGSFFLVSRLTVDKSRWQEGNVFSCSVMHEALHNHYTQKSLSLSLGKGGGGSEVQLLESGGGLVQPGGSLRLSCAASGFTFGNYDMAWVRQAPGKRPEWVSSIDTGGDITHYADSVKGRFTISRDNAKNTLYLQMNSLRPEDTAVYWCATDEEYALGPNEFDYYGQGTLVTVSS
# B3: CIgG4B1A1(RS) (Fc fusion)
# chain 1: GPPCPPCPAPEFLGGPSVFLFPPKPKDTLMISRTPEVTCVVVDVSQEDPEVQFNWYVDGVEVHNAKTKPREEQFNSTYRVVSVLTVLHQDWLNGKEYKCKVSNKGLPSSIEKTISKAKGQPREPQVYTLPPCQEEMTKNQVSLWCLVKGFYPSDIAVEWESNGQPENNYKTTPPVLDSDGSFFLYSRLTVDKSRWQEGNVFSCSVMHEALHNHYTQKSLSLSLGKRSQVQLQESGGGLVQTGGSLRLSCAVHGRTFSNTGMGWFRQAPGNERQFVAIISPSGTSTYYADSVKGRFTISRDPAKNTVYLQMNSLKMDDTAVYYCAASYGSNWSTLRHQRRNEYDAWGQGTQVAVS
# chain 2: GPPCPPCPAPEFLGGPSVFLFPPKPKDTLMISRTPEVTCVVVDVSQEDPEVQFNWYVDGVEVHNAKTKPREEQFNSTYRVVSVLTVLHQDWLNGKEYKCKVSNKGLPSSIEKTISKAKGQPREPQVCTLPPSQEEMTKNQVSLSCAVKGFYPSDIAVEWESNGQPENNYKTTPPVLDSDGSFFLVSRLTVDKSRWQEGNVFSCSVMHEALHNHYTQKSLSLSLGKRSEVQLLESGGGLVQPGGSLRLSCAASGFTFGNYDMAWVRQAPGKRPEWVSSIDTGGDITHYADSVKGRFTISRDNAKNTLYLQMNSLRPEDTAVYWCATDEEYALGPNEFDYYGQGTLVTVSS
# Biological target: T1, recombinant human IgE (human, UniProt P01854-1 1-428)
# T1 construct: made in-house (ALK); preloaded on immobilised FcεRIα in the displacement ELISA
# T1 sequence (P01854 other isoform, or with tags, fused parts or gaps): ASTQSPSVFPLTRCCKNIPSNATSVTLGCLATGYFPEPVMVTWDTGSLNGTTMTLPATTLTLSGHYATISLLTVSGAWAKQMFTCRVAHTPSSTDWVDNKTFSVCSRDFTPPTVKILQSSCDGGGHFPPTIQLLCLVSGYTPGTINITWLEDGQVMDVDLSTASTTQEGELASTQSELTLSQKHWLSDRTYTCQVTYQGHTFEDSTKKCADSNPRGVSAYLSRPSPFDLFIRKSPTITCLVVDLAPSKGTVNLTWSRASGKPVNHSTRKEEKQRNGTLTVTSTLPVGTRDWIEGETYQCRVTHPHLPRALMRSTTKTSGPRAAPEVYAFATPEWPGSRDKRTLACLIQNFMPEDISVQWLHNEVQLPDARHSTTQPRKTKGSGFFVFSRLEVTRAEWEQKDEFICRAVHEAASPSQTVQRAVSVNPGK
# Assay: IgE-FcεRIα displacement ELISA
# Protocol: The displacement effect was tested using IgE-FcεRIα displacement ELISA assay. Maxisorp® microtiter plates (Thermo Scientific Nunc, Roskilde, Denmark) were coated with 100 μl streptavidin, 5 μg/ml (Thermo Scientific, Waltham, MA) for 18 h at 4° C. followed by wash with 300 μl washing buffer (PBS containing 0.05% Tween 20) using an AquaMax® 2000 plate washer (Molecular Devices, San Jose, CA). Remaining binding sites were blocked with 250 μl blocking buffer (PBS containing 2% BSA) for 2 h and washed with 300 μl washing buffer. Subsequently, the bound streptavidin was loaded with 100 μl (0.1 μg/ml) recombinant human FcεRIα (site specific biotinylated via avi-tag, made in-house, ALK, Hørsholm, Denmark) for 1 h and plates washed twice with 300 μl washing buffer. The bound receptor was then loaded with 100 μl recombinant human IgE (made in-house, ALK, Hørsholm, Denmark), 13 ng/ml (pre-titrated to reach an OD₄₅₀ signal in the range of 1.5-2.5 in the absence of displacement components) for 1h followed by three washes of 300 μl washing buffer.
# displacement step: 100 μl sdAbs diluted in concentration series (pM-μM range) or blocking buffer only as a non-displacement negative control, were added to the ELISA wells and incubated for 1 h. Any IgE, displaced from the receptor by a sdAb was washed away by three washes of 300 μl washing buffer.
# The ability of the various sdAbs to displace IgE from the receptor (FcεRIα) was evaluated by use of the ELISA based IgE-FcεRIα displacement assay. The percent displacement effect was calculated as the relative reduction in signal compared to the control with no sdAb added. The EC₅₀ values and the maximal effects were determined (table 15).
EC50 [nM],Max effect [%],Binder
4,> 95,B1
3.1,> 95,B2
9.8,> 95,B3
